# Where a SMILES comes first, the peptide text is derived from it. [ ]: non-standard residue; d: D form.
# Key:
# PKC-βI = PKC-βI (Homo sapiens, UniProt P05771); experiment: ELISA-based competitive binding assay with purified PKC isoform; set-up: key to Affinity for PKC isoform βI: —: no detectable affinity; Low to very low affinity at 10X or 20X or both PRE concentrations in at least one cell line in the cell extract assay; Low affinity in purified isoform assay.; Moderate affinity at 10X or 20X or both PRE concentrations in at least one cell line in the cell extract assay.; High affinity at 10X or 20X or both PRE concentrations in at least one cell line in the cell extract assay; High affinity in purified isoform assay; settings: for Affinity for PKC isoform βI: Purified isoform
# PKC-βI, sequence (P05771 whole entry, canonical isoform): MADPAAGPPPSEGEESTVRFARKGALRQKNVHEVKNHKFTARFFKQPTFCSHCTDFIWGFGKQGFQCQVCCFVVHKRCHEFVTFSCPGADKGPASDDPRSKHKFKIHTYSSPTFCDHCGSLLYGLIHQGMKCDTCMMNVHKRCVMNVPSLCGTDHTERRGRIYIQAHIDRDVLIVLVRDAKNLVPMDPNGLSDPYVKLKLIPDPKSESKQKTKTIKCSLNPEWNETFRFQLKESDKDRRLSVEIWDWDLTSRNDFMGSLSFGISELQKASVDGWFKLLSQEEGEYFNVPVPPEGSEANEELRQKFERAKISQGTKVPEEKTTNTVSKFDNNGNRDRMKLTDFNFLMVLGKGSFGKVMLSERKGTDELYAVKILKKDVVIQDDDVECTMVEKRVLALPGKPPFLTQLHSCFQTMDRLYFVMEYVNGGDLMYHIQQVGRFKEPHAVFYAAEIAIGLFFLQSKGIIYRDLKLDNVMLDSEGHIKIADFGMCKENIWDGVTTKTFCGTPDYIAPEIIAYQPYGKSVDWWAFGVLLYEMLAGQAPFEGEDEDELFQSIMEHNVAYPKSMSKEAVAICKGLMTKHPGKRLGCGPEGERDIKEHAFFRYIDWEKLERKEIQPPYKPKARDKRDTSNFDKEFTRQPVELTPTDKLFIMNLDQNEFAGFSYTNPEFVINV
# Protocol: (§1) Peptides PRE 1, 2, 3, 4, 5, 6, 7, 8, 9, 10, 11, 12 and 13 (see Table 3) were tested for their ability to interfere with binding of PKC isoform-specific antibodies to their target PKC isoforms using a competitive binding assay and purified PKC isoforms.
# (§2) Procedure: Competitive binding was assessed using a 96 well plate ELISA-based assay as described below.
# (§3) Greiner 96 well ELISA plates were coated with the appropriate PKC isoform diluted in PBSN (PBS with Calcium/Magnesium+0.05% Sodium azide w/w). 50 μL/well at 250 ng/mL was used. Control wells contained PBSN only. Plates were incubated overnight at 4° C.
# (§4) The plates were washed 3 times with 200 μL of dH2O per well, then 100 μL of blocking solution was added per well and the plate incubated for 1 h at 37° C. The washing steps with dH2O were repeated and 50 μL of the appropriate PRE solution (PRE stock solution [20 mM in DMSO] diluted in PBSN) was added and the plate incubated for 1 h at room temperature.
# (§5) After incubation, 5 μL of 1.1:400 anti-PKC (isoform specific antibody) was added per well (to provide a final concentration of 1:4000). For PKC-epsilon, 1.1:800 dilution was used and for PKC-zeta a 1.1:100 dilution was used due to high and low binding affinity, respectively. The plates were then incubated 1 h at room temperature, followed by washing with dH2O as described above.
# (§6) 50 μL of 1:1000 dilution of Alkaline Phosphatase (AP) conjugated antibody (anti-rabbit for all except zeta, which was anti-goat) was then added and the plate incubated for 1 h at room temperature. Washing with dH2O was then repeated. Finally, 100 μL of pNPP solution in pNPP buffer (2 mM MgCl2, 100 mM Sodium bicarbonate in water, pH 9.8) was added to all wells and incubated for 8 minutes for α, βI, βII ε, and ζ, or for 15-20 mins for δ (until sufficient coloration is observed). The reaction was stopped by addition of Stop solution (2N NaOH) and the absorbance at 405 nm was read on a Galaxy Plate reader.
# (§7) Controls were PKC without PRE; blank controls, and controls containing the final concentrations of DMSO used for solubilizing the PREs. The non-specific binding capacity related to DMSO was also measured.
# (§8) The antibodies used were as follows: anti-PKC α (Cat. No. SC-208); anti-PKC βI (Cat. No. SC-209); anti-PKC βII (Cat. No. SC-210); anti-PKC δ (Cat. No. SC-213); anti-PKC ε (Cat. No. SC-214); anti-PKC ζ (Cat. No. SC-216-G) (all from Santa Cruz Biotechnology, Inc.). The AP-conjugated antibodies were obtained from Jackson Immuno Research Laboratories (West Grove, Pa.).
# (§9) Calculations: The OD values measured at 405 nm represent the free PKC coated per well.
# (§10) OD405 PKC alone−Blank OD405 of each sample=OD405 coated isoform
# (§11) (OD405 of sample X/OD405 coated isoform)×100=% n that represents the percentage of X binding compared to control.
# (§12) 100-% n measures the relative binding capacity of X towards the tested isoform.
# (§13) The apparent binding capacity of the DMSO samples was then subtracted from X binding capacity.
# (§14) All measurements were made in triplicate and the values in the table represent the averaged calculated binding capacity values after subtraction of the DMSO apparent binding capacity (averaged from 12 values, respectively 10.80, 11.20 and 16.40 corresponding to the concentrations of DMSO used to dilute the […] at 200, 100 and 50 μM respectively). The results allow for quantitative comparison of the binding capacity of each PRE towards an individual isoform within each table, but not among isoforms due to differences in sensitivity of the specific antibodies toward the secondary antibody. This applies particularly to PKC-delta. As noted above, the colour development duration was increased 2-3 times and, as a result, the OD405 measurements may be overestimated for this isoform.
# PKC-ε = biological target: T1, PKC-ε (Homo sapiens, UniProt Q02156); experiment: as above; set-up: key to Affinity for PKC isoform ε: —: no detectable affinity; Low to very low affinity at 10X or 20X or both PRE concentrations in at least one cell line in the cell extract assay; Low affinity in purified isoform assay.; Moderate affinity at 10X or 20X or both PRE concentrations in at least one cell line in the cell extract assay.; High affinity at 10X or 20X or both PRE concentrations in at least one cell line in the cell extract assay; High affinity in purified isoform assay; settings: for Affinity for PKC isoform ε: Purified isoform; for inhibition at 50 µM / inhibition at 100 µM / calculated binding capacity (100-% n, DMSO apparent binding subtracted): purified PKC-ε; for inhibition at 50 µM / inhibition at 100 µM: read-out: calculated binding capacity (100-% n, DMSO apparent binding subtracted)
# T1 sequence (Q02156 1-737): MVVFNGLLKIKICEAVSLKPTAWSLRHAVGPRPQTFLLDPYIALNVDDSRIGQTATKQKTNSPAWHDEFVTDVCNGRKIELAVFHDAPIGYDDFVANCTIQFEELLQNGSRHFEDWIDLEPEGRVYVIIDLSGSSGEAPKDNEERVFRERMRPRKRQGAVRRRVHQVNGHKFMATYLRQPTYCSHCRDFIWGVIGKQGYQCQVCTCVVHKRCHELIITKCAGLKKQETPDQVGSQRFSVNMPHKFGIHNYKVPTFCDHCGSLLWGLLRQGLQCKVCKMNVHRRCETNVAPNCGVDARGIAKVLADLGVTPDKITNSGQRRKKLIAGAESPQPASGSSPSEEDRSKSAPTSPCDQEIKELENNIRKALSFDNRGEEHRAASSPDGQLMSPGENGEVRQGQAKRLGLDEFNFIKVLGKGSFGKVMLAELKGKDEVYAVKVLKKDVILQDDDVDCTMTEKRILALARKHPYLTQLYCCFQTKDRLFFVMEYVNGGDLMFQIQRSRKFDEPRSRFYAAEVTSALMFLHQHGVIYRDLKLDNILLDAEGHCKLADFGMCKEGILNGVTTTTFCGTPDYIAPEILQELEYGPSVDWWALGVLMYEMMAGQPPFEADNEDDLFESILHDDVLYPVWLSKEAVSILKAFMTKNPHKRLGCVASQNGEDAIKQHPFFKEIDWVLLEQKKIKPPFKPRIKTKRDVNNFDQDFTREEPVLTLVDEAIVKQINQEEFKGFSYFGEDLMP
# Protocol: as §1, §2, §3, §4, §5, §6, §7, §8, §9, §10, §11, §12, §13, §14
Molecule,Affinity for PKC isoform βI (PKC-βI),Affinity for PKC isoform ε (PKC-ε),further results
CC[C@H](C)[C@H](NC(=O)[C@H](CO)NC(=O)[C@@H](NC(=O)CNC(=O)[C@@H](NC(=O)[C@H](CC(C)C)NC(=O)[C@H](CC(N)=O)NC(=O)[C@H](CCC(N)=O)NC(=O)[C@H](C)NC(=O)[C@H](CC(=O)O)NC(=O)CNC(=O)CNC(=O)[C@H](CCCCN)NC(=O)[C@@H](NC(=O)[C@H](CCC(=O)O)NC(=O)[C@H](CCC(N)=O)NC(=O)[C@@H](NC(=O)CNC(=O)[C@H](CCCCN)NC(=O)[C@H](C)NC(C)=O)[C@@H](C)CC)C(C)C)[C@@H](C)CC)[C@@H](C)CC)C(N)=O [PRE 3] (Ac-AKGIQEVKGGDAQNLIGISI-NH2),H,H,
"CC[C@H](C)[C@H](NC(=O)[C@H](CO)NC(=O)[C@@H](NC(=O)CNC(=O)[C@@H](NC(=O)[C@H](CC(C)C)NC(=O)[C@H](CC(N)=O)NC(=O)[C@H](CCC(N)=O)NC(=O)[C@H](C)NC(=O)[C@H](CC(=O)O)NC(=O)[C@H](CCCCN)NC(C)=O)[C@@H](C)CC)[C@@H](C)CC)C(N)=O [PRE 4, Ac-KDAQNLIGISI-NH2] (Ac-KDAQNLIGISI-NH2)",L,—,inhibition at 50 µM (PKC-ε; PRE 50 μM): 0%; inhibition at 100 µM (PKC-ε; PRE 100 μM): 0%
CC[C@H](C)[C@H](NC(=O)[C@H](CO)NC(=O)[C@@H](NC(=O)CNC(=O)[C@@H](NC(=O)[C@H](CC(C)C)NC(=O)[C@H](CC(N)=O)NC(=O)[C@H](CCC(N)=O)NC(=O)[C@H](C)NC(=O)[C@H](CC(=O)O)NC(=O)[C@H](CCCCN)NC(=O)CNC(=O)CNC(=O)[C@H](CCCCN)NC(=O)[C@@H](NC(=O)[C@H](CCC(=O)O)NC(=O)[C@H](CCC(N)=O)NC(=O)[C@@H](NC(=O)CNC(=O)[C@H](CCCCN)NC(=O)[C@H](C)NC(C)=O)[C@@H](C)CC)C(C)C)[C@@H](C)CC)[C@@H](C)CC)C(N)=O [PRE 5] (Ac-AKGIQEVKGGKDAQNLIGISI-NH2),—,—,"inhibition at 50 µM (PKC-βI; PRE 50 μM, purified PKC-βI, read-out: calculated binding capacity (100-% n, DMSO apparent binding subtracted)): 0%; inhibition at 100 µM (PKC-βI; PRE 100 μM, purified PKC-βI, read-out: calculated binding capacity (100-% n, DMSO apparent binding subtracted)): 0%; inhibition at 200 µM (PKC-βI; PRE 200 μM, purified PKC-βI, read-out: calculated binding capacity (100-% n, DMSO apparent binding subtracted)): 0%; inhibition at 50 µM (PKC-ε; PRE 50 μM): 0%; inhibition at 100 µM (PKC-ε; PRE 100 μM): 0%"
Ac-ISIGILNQADK-NH2 [PRE 10],—,—,"calculated binding capacity (100-% n, DMSO apparent binding subtracted) (PKC-ε; PRE 50 μM): 0.91%; calculated binding capacity (100-% n, DMSO apparent binding subtracted) (PKC-ε; PRE 200 μM): 1.75%"
Ac-ISIGILQNADK-NH2 (not fully specified; printed as Ac-ISIGILQNADK-NH2) [PRE 7],—,L,"calculated binding capacity (100-% n, DMSO apparent binding subtracted) (PKC-βI; PRE 50 μM, purified PKC-βI): 2.10%"
Ac-KDANQLIGISI-NH2 [PRE 6],L,—,"calculated binding capacity (100-% n, DMSO apparent binding subtracted) (PKC-ε; PRE 50 μM): 2.61%; calculated binding capacity (100-% n, DMSO apparent binding subtracted) (PKC-ε; PRE 100 μM): 0.46%"
Ac-KDAQNLI-NH2 [PRE 12],—,—,
Ac-RDAQNLI-NH2 [PRE 13],—,—,
Ac-RDAQNLIGISI-NH2 [PRE 11],—,L,
Ac-isigilqnadk-NH2 (Ac-[dI][dS][dI]G[dI][dL][dQ][dN][dA][dD][dK]-NH2; SMILES CC[C@@H](C)[C@@H](NC(C)=O)C(=O)N[C@H](CO)C(=O)N[C@@H](C(=O)NCC(=O)N[C@@H](C(=O)N[C@H](CC(C)C)C(=O)N[C@H](CCC(N)=O)C(=O)N[C@H](CC(N)=O)C(=O)N[C@H](C)C(=O)N[C@H](CC(=O)O)C(=O)N[C@H](CCCCN)C(N)=O)[C@H](C)CC)[C@H](C)CC) [PRE 9],L,L,"calculated binding capacity (100-% n, DMSO apparent binding subtracted) (PKC-βI; PRE 50 μM, purified PKC-βI): 11.53%; calculated binding capacity (100-% n, DMSO apparent binding subtracted) (PKC-βI; PRE 100 μM, purified PKC-βI): 8.82%; calculated binding capacity (100-% n, DMSO apparent binding subtracted) (PKC-βI; PRE 200 μM, purified PKC-βI): 5.72%; calculated binding capacity (100-% n, DMSO apparent binding subtracted) (PKC-ε; PRE 50 μM): 16.35%; calculated binding capacity (100-% n, DMSO apparent binding subtracted) (PKC-ε; PRE 100 μM): 8.53%"
ILEDKGGDAQNLIGISI [PRE 8],—,—,
RRKKGGKDFVVKR [PRE 1],H,—,"calculated binding capacity (100-% n, DMSO apparent binding subtracted) (PKC-ε; PRE 100 μM): 5.47%; calculated binding capacity (100-% n, DMSO apparent binding subtracted) (PKC-ε; PRE 200 μM): 0.83%"

# Source: US20110039770A1, “INHIBITORS OF PROTEIN KINASE C ISOFORMS AND USES THEREOF” (PHARMAGAP INC., priority 2005, published 2011)
